This passage reports amyloid nucleation score results from the supplement of paper PMC12042874.

± gives the uncertainty stated by the source.

A short description of the series: amyloid nucleation score (Sup35N fusion, yeast selection) (log enrichment); library NNK3; higher = more nucleation; inactive = no reads after selection. The procedure, abridged: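 In psi-negative yeast, Sup35N fusions carrying peptides of 20 random codons were induced with 100 μM copper sulfate for 24 hours. The cells then grew 7 days at 30°C on medium lacking adenine and uracil, and plasmid inserts from input and output were Illumina-sequenced, excluding sequences with under 100 input reads. Nucleation score is the DiMSum log enrichment of output over input reads, centred on the mode score of non-aggregating sequences.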

For WMCIEGIANLESAFNRRFST, the amyloid nucleation score result was “inactive”.

In the case of KIVLDRARDWQL, the amyloid nucleation score was 0.094 ± 0.41.

VLTYTFRPSVSCSNKSKGSA had an amyloid nucleation score of 0.107 ± 0.35.

In turn, VCSSGQKSLKMLRIFHIFNP gave an amyloid nucleation score of -0.352 ± 0.87.

With TSFGPKLPTGVFVCEGSNDR, the amyloid nucleation score entry was “inactive”.

Consider EYSVRADPGREMNGEISAWV, for which the amyloid nucleation score result was “inactive”.

For the substance CYDDRHENHHYGE, the amyloid nucleation score entry was “inactive”.

For EWVALNSSYLWYCPVM, the amyloid nucleation score result was “inactive”.

As for MHFLVQSCFTEPRWAACRNV, the amyloid nucleation score result is “inactive”.

Take KFLYRCINRLANSLIRELPI: the amyloid nucleation score result was “inactive”.

For the substance LGIQYLDETHCPKSTSKGFS, the amyloid nucleation score entry is “inactive”.

For WQLAGYWLEWSIRPEGALDD, the amyloid nucleation score result was “inactive”.

ISYTTSNYITLVYKLTNRAY displayed an amyloid nucleation score of 0.911 ± 0.13.

The substance AEIKMLLLQIHDS returned an amyloid nucleation score of 0.078 ± 0.23.

In the case of TKRWHR, the amyloid nucleation score entry was “inactive”.

On to VTCVVVVGVHVRRHGFQEYV, for which the amyloid nucleation score result was “inactive”.

DDGFYMSVGIVSWFC gave an amyloid nucleation score of 0.843 ± 0.13.

Regarding LYHFANIFSFC, the amyloid nucleation score result is “inactive”.

For the substance MSNLCDLHKN, the amyloid nucleation score result is “inactive”.

On to GLLRTLSQDMTCGRDAGQGN, for which the amyloid nucleation score entry was “inactive”.

VWHMGWKLPDS displayed an amyloid nucleation score of -0.39 ± 0.56.

For WLCLEYMVDEADNFSDGAWM, the amyloid nucleation score result was “inactive”.

In turn, ARYKGWTHNWPINHLIFLNS displayed an amyloid nucleation score of -0.127 ± 1.1.

Regarding LLGYASMASSFIYIQHNVLE, the amyloid nucleation score entry was “inactive”.

Regarding HWGWVTSIESVVRRFCNNFC, the amyloid nucleation score entry was “inactive”.

Substance STLFSPR displayed an amyloid nucleation score of 0.922 ± 0.14.

As for VLGCVGLCYHRYVNALGGAE, the amyloid nucleation score entry is “inactive”.

With MIRWTWNRKHTII, the amyloid nucleation score result is “inactive”.

In the case of GLCRLIDLKM, the amyloid nucleation score result is “inactive”.

As for WTRGNRHVVLQLLGQVSF, the amyloid nucleation score entry is “inactive”.

With FIYNVDVHCASSVNIGWGQK, the amyloid nucleation score worked out at 2.83 ± 0.08.

For WRLVLLHW, the amyloid nucleation score entry was “inactive”.

In turn, YEPSNCKLVSMYVFCRLKLA showed an amyloid nucleation score of -0.574 ± 1.

On to IFSRLGFVCLIMFTC, for which the amyloid nucleation score result is “inactive”.

Turning to DSSMIDRAENAH, the amyloid nucleation score entry was “inactive”.

In the case of AVTSLDVGFYV, the amyloid nucleation score result is “inactive”.

Take DCVYSSPCGVALIDLGAGLK: the amyloid nucleation score entry is “inactive”.

As to RILRVRF, the amyloid nucleation score entry was “inactive”.

Regarding LNYVLS, the amyloid nucleation score entry is “inactive”.

Turning to NVIYFHTQGMY, the amyloid nucleation score result was “inactive”.

Regarding QNVGIVYRTST, the amyloid nucleation score was -0.928 ± 2.5.

As to VVDDIWRPIDL, the amyloid nucleation score entry is “inactive”.

Turning to TLNGFLNGYEYQ, the amyloid nucleation score entry is “inactive”.

With ETKSCWQL, the amyloid nucleation score entry was “inactive”.

As for AYFLLCHHFTKRSWARGWR, the amyloid nucleation score came to 0.314 ± 0.46.

For GFKDLWYCDGF, the amyloid nucleation score result is “inactive”.

For GYRYTVHGIFEGVLWLTSAG, the amyloid nucleation score entry was “inactive”.

NYVVIPRFMYLVQIYLKVFW gave an amyloid nucleation score of -0.064 ± 0.8.

Consider FFIYKFYPFRGISLSAVRIR, for which the amyloid nucleation score result was “inactive”.

In turn, FMGFFYNFYVPKLKSSVHNE displayed an amyloid nucleation score of 0.303 ± 0.34.

Regarding SGNWTDRTVIPYHYYIDKLN, the amyloid nucleation score result is “inactive”.

On to RVIRNQSVRTPP, for which the amyloid nucleation score result is “inactive”.

For FMGSGQVVNTRASGIMGLFF, the amyloid nucleation score entry is “inactive”.

For the substance DRCNVGRYLG, the amyloid nucleation score result is “inactive”.

Take CQVWFTYYYLLGSTNDSMAR: the amyloid nucleation score result is “inactive”.

For LFDRTLL, the amyloid nucleation score entry is “inactive”.

With AYPARLTIASEFKIMAHYGM, the amyloid nucleation score is 1.36 ± 0.15.

In turn, HSATASFHAADWSLKFMDGP showed an amyloid nucleation score of 0.326 ± 0.23.

For YVDLQPITREADDLRALTFM, the amyloid nucleation score entry was “inactive”.

VGGGVPVTLGFSLRRSWSVV came in with an amyloid nucleation score of 0.199 ± 0.62.

Take TLVGFRALKYIRWTCLAHRF: the amyloid nucleation score entry was “inactive”.

For the substance VKVCEVSMQNRIFTGHAHFS, the amyloid nucleation score result is “inactive”.

In the case of YDCCMLHWIVFGGIVDGMCL, the amyloid nucleation score entry was “inactive”.

Regarding ANHLPWEAVWTPRWGYGCSP, the amyloid nucleation score result was “inactive”.

With WWSCGILSKPFFWYISRTF, the amyloid nucleation score entry is “inactive”.

Consider FRFSMSL, for which the amyloid nucleation score result is “inactive”.

SLYYSTCIK: the amyloid nucleation score result is “inactive”.

Take QNGCRLMTCC: the amyloid nucleation score result is “inactive”.

As to HFHFLGCDSLGIVVGEWSDH, the amyloid nucleation score turned out to be 0.94 ± 0.18.

Take NFRLSVLKVLCYVIVED: the amyloid nucleation score worked out at 2.14 ± 0.057.

Take RGVFLTEEASFIGELSLCSA: the amyloid nucleation score result was “inactive”.

On to DWEARCCREVTGNGVFESQK, for which the amyloid nucleation score result was “inactive”.

For the substance CLRSVDDWFKC, the amyloid nucleation score entry was “inactive”.

Consider SFSVSKAWGWMYSIQRCCLC, for which the amyloid nucleation score result was “inactive”.

KTRERGLSTGDGTQNEIAGY registered an amyloid nucleation score of -0.123 ± 0.51.

As to YGCFVPY, the amyloid nucleation score result is “inactive”.

In turn, NGVFWGRKSRSYEFWSFYFQ returned an amyloid nucleation score of -0.052 ± 0.62.

The substance SNIMHQNVTCESFYCRSSLW showed an amyloid nucleation score of 1.81 ± 0.067.

As to RNFVEANAYSFRLVTVTLSM, the amyloid nucleation score result was “inactive”.

On to FRILIIFSVYGSMISHLP, for which the amyloid nucleation score result is “inactive”.

Regarding LLIIGLKSAVGVW, the amyloid nucleation score entry was “inactive”.

Regarding YLGGFLWVWKQFSSCRLVQY, the amyloid nucleation score is -0.057 ± 0.78.

NNTVDDSVFWNELDGHTWLV: the amyloid nucleation score result is “inactive”.

FTTRFTFTIP returned an amyloid nucleation score of 1.24 ± 0.17.

Regarding ASYRAVNVDTGRIWPEFQLG, the amyloid nucleation score entry is “inactive”.

LCFMRHSLRGWG returned an amyloid nucleation score of -0.415 ± 0.96.

As for IEVKDSVGVRCFYTYSPTCQ, the amyloid nucleation score result is “inactive”.

Take MMPNELFDPVRKDRSFVRWV: the amyloid nucleation score entry was “inactive”.

With DLRSITMCWCIIPTGRCVVA, the amyloid nucleation score result is “inactive”.

As for LAITNIEWSLFIQWTLI, the amyloid nucleation score result was “inactive”.

Take YALYCVFTGNSWQSVLRHRY: the amyloid nucleation score came to 1.32 ± 0.095.

QALPSRLGSAGFDYWPPAMS registered an amyloid nucleation score of -0.039 ± 0.53.

Take GIFTLFYYVMMKLIFDFFTV: the amyloid nucleation score result was “inactive”.

For the substance CFMTS, the amyloid nucleation score result is “inactive”.

Take LQNLNGLIVKSCL: the amyloid nucleation score entry was “inactive”.

For the substance DCCKFFLKDSRSRSFSWSIY, the amyloid nucleation score was 1.66 ± 0.08.

As to FNHSRYDSVFWFVVHPSYEG, the amyloid nucleation score entry is “inactive”.

For the substance IPVLLPSMCINNKFMVSSWN, the amyloid nucleation score stood at 1.39 ± 0.1.

On to NLYMGRPKRRVIGYLVACFA, for which the amyloid nucleation score result was “inactive”.

Regarding YSCVWNGKWCYYSTANDLS, the amyloid nucleation score entry was “inactive”.

The substance CVTVNIELLTWITACGNFTL showed an amyloid nucleation score of 1.62 ± 0.075.

Turning to RTKMLAVRDVHSGYHSTTQC, the amyloid nucleation score result was “inactive”.

In turn, GLPNGGDPCLREVGSHLVTH had an amyloid nucleation score of -0.347 ± 1.4.

Consider TMSVMPLTVQVLVGRISDGQ, for which the amyloid nucleation score came to 1.71 ± 0.071.

Turning to FFVWKHLLMRFRYALACTLM, the amyloid nucleation score entry is “inactive”.

In turn, IRVTRIRAKVTLTTNVMWVP showed an amyloid nucleation score of 0.463 ± 0.29.

In the case of NVLLFLIVKHSVGIFVV, the amyloid nucleation score entry is “inactive”.

Take AITGFNRKVDYLGSGECVEH: the amyloid nucleation score entry is “inactive”.

Take PYLLAVNRGESSSSVWLMPM: the amyloid nucleation score result was “inactive”.

On to YLVSIRNNYRCEV, for which the amyloid nucleation score result was “inactive”.

With HSFTAMLICSAYASAARYLR, the amyloid nucleation score entry was “inactive”.

ISCALHYDSVRKRYVVSGQL: the amyloid nucleation score entry is “inactive”.

For SLVMAEVITPIGLSFCSNYT, the amyloid nucleation score result is “inactive”.

In turn, KPLMWESSDNPEGWQLSLLG displayed an amyloid nucleation score of -0.79 ± 1.4.

In the case of PVFLCSLLLVPKANSIPGK, the amyloid nucleation score entry was “inactive”.

In the case of QDVVNPPLFY, the amyloid nucleation score entry is “inactive”.

Regarding SISWRYWKSI, the amyloid nucleation score entry was “inactive”.

Take RRWPTPVCFNEG: the amyloid nucleation score entry is “inactive”.

Consider GRAHQFLISSFLSPGGPLMR, for which the amyloid nucleation score result is “inactive”.

Turning to LILCRCCSGVYRTRVMKLLL, the amyloid nucleation score result was “inactive”.

As for WGLLV, the amyloid nucleation score result is “inactive”.

For the substance QRVMFFCAMSLNKPRSV, the amyloid nucleation score entry is “inactive”.

CAFVDSISCLPLFR: the amyloid nucleation score result was “inactive”.

As for GIFVSMTLFILKILFARYVR, the amyloid nucleation score entry was “inactive”.

On to GLNYS, for which the amyloid nucleation score entry was “inactive”.

As to FYVNCFSL, the amyloid nucleation score came to 1.01 ± 0.11.

Take LLTFSMVDKFLSDNSYLNGI: the amyloid nucleation score entry is “inactive”.

For the substance KFFCW, the amyloid nucleation score result is “inactive”.

As to SGPRDSRLCRDSSVSGVYLS, the amyloid nucleation score result was “inactive”.

Regarding KSLTAYSLFVASYLSSFEWG, the amyloid nucleation score result was “inactive”.

As for RGYGTSDRIAALMWLSRWFQ, the amyloid nucleation score entry was “inactive”.

As to VCMLVMYESRLNVEKAVLLG, the amyloid nucleation score is -0.083 ± 0.64.
